# Target: T1, human FcRn (soluble human FcRn complexed with β2-microglobulin) (human, UniProt P61769 21-119, limits assumed)
# T1 construct: also called hFcRn
# Test: SPR, pH 7.0;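 further: antibodies captured on a Protein L sensor chip with human FcRn injected as analyte, KD calculated from fitted association and dissociation rate constants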
row,Binder,Kd
1,"IgG1-F294 (antibody, EU numbering; copies: 2 + 2) heavy: QVQLQESGPGLVKPSETLSLTCAVSGHSISHDHAWSWVRQPPGEGLEWIGFISYSGITNYNPSLQGRVTISRDNSKNTLYLQMNSLRAEDTAVYYCARSLARTTAMDYWGEGTLVTVSSASTKGPSVFPLAPSSKSTSGGTAALGCLVKDYFPEPVTVSWNSGALTSGVHTFPAVLQSSGLYSLSSVVTVPSSSLGTQTYICNVNHKPSNTKVDKKVEPKSCDKTHTCPPCPAPELLGGPKVFLFPPKPKDTLYISRTPEVTCVVVDVSHEDPEVKFNWYVDGVEVHNAKTKPREEQYNSTYRVVSVLTPLHQDWLNGKEYKCKVSNKALPAPIEKTISKAKGQPREPQVYTLPPSRDELTKNQVSLTCLVKGFYPSDIAVEWESNGQPENNYKTTPPVLDSDGSFFLYSKLTVDKSRWQQGNVFSCSVFHEALHYHYTQKSLSLSP light: not shown",110 nM
2,"IgG1-F296 (antibody, EU numbering; copies: 2 + 2) heavy: QVQLQESGPGLVKPSETLSLTCAVSGHSISHDHAWSWVRQPPGEGLEWIGFISYSGITNYNPSLQGRVTISRDNSKNTLYLQMNSLRAEDTAVYYCARSLARTTAMDYWGEGTLVTVSSASTKGPSVFPLAPSSKSTSGGTAALGCLVKDYFPEPVTVSWNSGALTSGVHTFPAVLQSSGLYSLSSVVTVPSSSLGTQTYICNVNHKPSNTKVDKKVEPKSCDKTHTCPPCPAPELLGGPSVFLFPPKPKDTLYISRTPEVTCVVVDVSHEDPEVKFNWYVDGVEVHNAKTKPREEQYNSTYRVVSVLTVLHADWLNGKEYKCKVSNKALPAPIEKTISKAKGQPREPQVYTLPPSRDELTKNQVSLTCLVKGFYPSDIAVEWESNGQPENNYKTTPPVLDSDGSFFLYSKLTVDKSRWQQGNVFSCSVYHEALHYHYTQKSLSLSP light: not shown",490 nM
3,"IgG1-F297 (antibody, EU numbering; copies: 2 + 2) heavy: QVQLQESGPGLVKPSETLSLTCAVSGHSISHDHAWSWVRQPPGEGLEWIGFISYSGITNYNPSLQGRVTISRDNSKNTLYLQMNSLRAEDTAVYYCARSLARTTAMDYWGEGTLVTVSSASTKGPSVFPLAPSSKSTSGGTAALGCLVKDYFPEPVTVSWNSGALTSGVHTFPAVLQSSGLYSLSSVVTVPSSSLGTQTYICNVNHKPSNTKVDKKVEPKSCDKTHTCPPCPAPELLGGPSVFLFPPKPKDTLYISRTPEVTCVVVDVSHEDPEVKFNWYVDGVEVHNAKTKPREEQYNSTYRVVSVLTVLHQAWLNGKEYKCKVSNKALPAPIEKTISKAKGQPREPQVYTLPPSRDELTKNQVSLTCLVKGFYPSDIAVEWESNGQPENNYKTTPPVLDSDGSFFLYSKLTVDKSRWQQGNVFSCSVYHEALHYHYTQKSLSLSP light: not shown",510 nM
4,"IgG1-F300 (antibody, EU numbering; copies: 2 + 2) heavy: QVQLQESGPGLVKPSETLSLTCAVSGHSISHDHAWSWVRQPPGEGLEWIGFISYSGITNYNPSLQGRVTISRDNSKNTLYLQMNSLRAEDTAVYYCARSLARTTAMDYWGEGTLVTVSSASTKGPSVFPLAPSSKSTSGGTAALGCLVKDYFPEPVTVSWNSGALTSGVHTFPAVLQSSGLYSLSSVVTVPSSSLGTQTYICNVNHKPSNTKVDKKVEPKSCDKTHTCPPCPAPELLGGPKVFLFPPKPKDTLYISRTPEVTCVVVDVSHEDPEVKFNWYVDGVEVHNAKTKPREEQYNSTYRVVSVLTPLHQAWLNGKEYKCKVSNKALPAPIEKTISKAKGQPREPQVYTLPPSRDELTKNQVSLTCLVKGFYPSDIAVEWESNGQPENNYKTTPPVLDSDGSFFLYSKLTVDKSRWQQGNVFSCSVYHEALHYHYTQKSLSLSP light: not shown",83 nM
5,"IgG1-F295 (antibody, EU numbering; copies: 2 + 2) heavy: QVQLQESGPGLVKPSETLSLTCAVSGHSISHDHAWSWVRQPPGEGLEWIGFISYSGITNYNPSLQGRVTISRDNSKNTLYLQMNSLRAEDTAVYYCARSLARTTAMDYWGEGTLVTVSSASTKGPSVFPLAPSSKSTSGGTAALGCLVKDYFPEPVTVSWNSGALTSGVHTFPAVLQSSGLYSLSSVVTVPSSSLGTQTYICNVNHKPSNTKVDKKVEPKSCDKTHTCPPCPAPELLGGPKVFLFPPKPKDTLYISRTPEVTCVVVDVSHEDPEVKFNWYVDGVEVHNAKTKPREEQYNSTYRVVSVLTVLHQDWLNGKEYKCKVSNKALPAPIEKTISKAKGQPREPQVYTLPPSRDELTKNQVSLTCLVKGFYPSDIAVAWASNGQPENNYKTTPPVLDSDGSFFLYSKLTVDKSRWQQGNVFSCSVFHEALHYHYTQKSLSLSP light: not shown",680 nM
6,"IgG1-F299 (antibody, EU numbering; copies: 2 + 2) heavy: QVQLQESGPGLVKPSETLSLTCAVSGHSISHDHAWSWVRQPPGEGLEWIGFISYSGITNYNPSLQGRVTISRDNSKNTLYLQMNSLRAEDTAVYYCARSLARTTAMDYWGEGTLVTVSSASTKGPSVFPLAPSSKSTSGGTAALGCLVKDYFPEPVTVSWNSGALTSGVHTFPAVLQSSGLYSLSSVVTVPSSSLGTQTYICNVNHKPSNTKVDKKVEPKSCDKTHTCPPCPAPELLGGPKVFLFPPKPKDTLYISRTPEVTCVVVDVSHEDPEVKFNWYVDGVEVHNAKTKPREEQYNSTYRVVSVLTPLHADWLNGKEYKCKVSNKALPAPIEKTISKAKGQPREPQVYTLPPSRDELTKNQVSLTCLVKGFYPSDIAVEWESNGQPENNYKTTPPVLDSDGSFFLYSKLTVDKSRWQQGNVFSCSVYHEALHYHYTQKSLSLSP light: not shown",94 nM
7,"IgG1-F298 (antibody, EU numbering; copies: 2 + 2) heavy: QVQLQESGPGLVKPSETLSLTCAVSGHSISHDHAWSWVRQPPGEGLEWIGFISYSGITNYNPSLQGRVTISRDNSKNTLYLQMNSLRAEDTAVYYCARSLARTTAMDYWGEGTLVTVSSASTKGPSVFPLAPSSKSTSGGTAALGCLVKDYFPEPVTVSWNSGALTSGVHTFPAVLQSSGLYSLSSVVTVPSSSLGTQTYICNVNHKPSNTKVDKKVEPKSCDKTHTCPPCPAPELLGGPSVFLFPPKPKDTLYISRTPEVTCVVVDVSHEDPEVKFNWYVDGVEVHNAKTKPREEQYNSTYRVVSVLTVLHAAWLNGKEYKCKVSNKALPAPIEKTISKAKGQPREPQVYTLPPSRDELTKNQVSLTCLVKGFYPSDIAVEWESNGQPENNYKTTPPVLDSDGSFFLYSKLTVDKSRWQQGNVFSCSVYHEALHYHYTQKSLSLSP light: not shown",480 nM

# The next lines start with the values.
row,Kd,Binder
1,72 nM,"IgG1-F301 (antibody, EU numbering; copies: 2 + 2) heavy: QVQLQESGPGLVKPSETLSLTCAVSGHSISHDHAWSWVRQPPGEGLEWIGFISYSGITNYNPSLQGRVTISRDNSKNTLYLQMNSLRAEDTAVYYCARSLARTTAMDYWGEGTLVTVSSASTKGPSVFPLAPSSKSTSGGTAALGCLVKDYFPEPVTVSWNSGALTSGVHTFPAVLQSSGLYSLSSVVTVPSSSLGTQTYICNVNHKPSNTKVDKKVEPKSCDKTHTCPPCPAPELLGGPKVFLFPPKPKDTLYISRTPEVTCVVVDVSHEDPEVKFNWYVDGVEVHNAKTKPREEQYNSTYRVVSVLTPLHAAWLNGKEYKCKVSNKALPAPIEKTISKAKGQPREPQVYTLPPSRDELTKNQVSLTCLVKGFYPSDIAVEWESNGQPENNYKTTPPVLDSDGSFFLYSKLTVDKSRWQQGNVFSCSVYHEALHYHYTQKSLSLSP light: not shown"
2,190 nM,"IgG1-F302 (antibody, EU numbering; copies: 2 + 2) heavy: QVQLQESGPGLVKPSETLSLTCAVSGHSISHDHAWSWVRQPPGEGLEWIGFISYSGITNYNPSLQGRVTISRDNSKNTLYLQMNSLRAEDTAVYYCARSLARTTAMDYWGEGTLVTVSSASTKGPSVFPLAPSSKSTSGGTAALGCLVKDYFPEPVTVSWNSGALTSGVHTFPAVLQSSGLYSLSSVVTVPSSSLGTQTYICNVNHKPSNTKVDKKVEPKSCDKTHTCPPCPAPELLGGPSVFLFPPKPKDTLYISREPEVTCVVVDVSHEDPEVKFNWYVDGVEVHNAKTKPREEQYNSTYRVVSVLPVLHQDWLNGKEYKCKVSNKALPAPIEKTISKAKGQPREPQVYTLPPSRDELTKNQVSLTCLVKGFYPSDIAVEWESNGQPENNYKTTPPVLDSDGSFFLYSKLTVDKSRWQQGNVFSCSVMHEALHYHYTQKSLSLSP light: not shown"
3,27 nM,"IgG1-F305 (antibody, EU numbering; copies: 2 + 2) heavy: QVQLQESGPGLVKPSETLSLTCAVSGHSISHDHAWSWVRQPPGEGLEWIGFISYSGITNYNPSLQGRVTISRDNSKNTLYLQMNSLRAEDTAVYYCARSLARTTAMDYWGEGTLVTVSSASTKGPSVFPLAPSSKSTSGGTAALGCLVKDYFPEPVTVSWNSGALTSGVHTFPAVLQSSGLYSLSSVVTVPSSSLGTQTYICNVNHKPSNTKVDKKVEPKSCDKTHTCPPCPAPELLGGPSVFLFPPKPKDTLYISREPEVTCVVVDVSHEDPEVKFNWYVDGVEVHNAKTKPREEQYNSTYRVVSVLTPLHQDWLNGKEYKCKVSNKALPAPIEKTISKAKGQPREPQVYTLPPSRDELTKNQVSLTCLVKGFYPSDIAVEWASNGQPENNYKTTPPVLDSDGSFFLYSKLTVDKSRWQQGNVFSCSVMHEALHYHYTQKSLSLSP light: not shown"
4,36 nM,"IgG1-F306 (antibody, EU numbering; copies: 2 + 2) heavy: QVQLQESGPGLVKPSETLSLTCAVSGHSISHDHAWSWVRQPPGEGLEWIGFISYSGITNYNPSLQGRVTISRDNSKNTLYLQMNSLRAEDTAVYYCARSLARTTAMDYWGEGTLVTVSSASTKGPSVFPLAPSSKSTSGGTAALGCLVKDYFPEPVTVSWNSGALTSGVHTFPAVLQSSGLYSLSSVVTVPSSSLGTQTYICNVNHKPSNTKVDKKVEPKSCDKTHTCPPCPAPELLGGPSVFLFPPKPKDTLWISRTPEVTCVVVDVSHEDPEVKFNWYVDGVEVHNAKTKPREEQYNSTYRVVSVLTPLHQDWLNGKEYKCKVSNKALPAPIEKTISKAKGQPREPQVYTLPPSRDELTKNQVSLTCLVKGFYPSDIAVEWASNGQPENNYKTTPPVLDSDGSFFLYSKLTVDKSRWQQGNVFSCSVMHEALHYHYTQKSLSLSP light: not shown"
5,16 nM,"IgG1-F304 (antibody, EU numbering; copies: 2 + 2) heavy: QVQLQESGPGLVKPSETLSLTCAVSGHSISHDHAWSWVRQPPGEGLEWIGFISYSGITNYNPSLQGRVTISRDNSKNTLYLQMNSLRAEDTAVYYCARSLARTTAMDYWGEGTLVTVSSASTKGPSVFPLAPSSKSTSGGTAALGCLVKDYFPEPVTVSWNSGALTSGVHTFPAVLQSSGLYSLSSVVTVPSSSLGTQTYICNVNHKPSNTKVDKKVEPKSCDKTHTCPPCPAPELLGGPSVFLFPPKPKDTLWISRTPEVTCVVVDVSHEDPEVKFNWYVDGVEVHNAKTKPREEQYNSTYRVVSVLTPLHQDWLNGKEYKCKVSNKALPAPIEKTISKAKGQPREPQVYTLPPSRDELTKNQVSLTCLVKGFYPSDIAVEWESNGQPENNYKTTPPVLDSDGSFFLYSKLTVDKSRWQQGNVFSCSVYHEALHYHYTQKSLSLSP light: not shown"
6,670 nM,"IgG1-F303 (antibody, EU numbering; copies: 2 + 2) heavy: QVQLQESGPGLVKPSETLSLTCAVSGHSISHDHAWSWVRQPPGEGLEWIGFISYSGITNYNPSLQGRVTISRDNSKNTLYLQMNSLRAEDTAVYYCARSLARTTAMDYWGEGTLVTVSSASTKGPSVFPLAPSSKSTSGGTAALGCLVKDYFPEPVTVSWNSGALTSGVHTFPAVLQSSGLYSLSSVVTVPSSSLGTQTYICNVNHKPSNTKVDKKVEPKSCDKTHTCPPCPAPELLGGPSVFLFPPKPKDTLYISRTPEVTCVVVDVSHEDPEVKFNWYVDGVEVHNAKTKPREEQYNSTYRVVSVLPVLHQDWLNGKEYKCKVSNKALPAPIEKTISKAKGQPREPQVYTLPPSRDELTKNQVSLTCLVKGFYPSDIAVEWESNGQPENNYKTTPPVLDSDGSFFLYSKLTVDKSRWQQGNVFSCSVYHEALHYHYTQKSLSLSP light: not shown"
